{"source": "paper PMC5730568", "key": {"[1]": {"tested_on": "GST-MBNL1-His6 (truncated 41-kDa isoform)", "test": "filter binding", "conditions": "MBNL1 filter binding: 250 mM NaCl, 15 mM KCl, 50 mM Tris-HCl pH 8.0, 0.05% Tween-20, 1 mM MgCl2, 37 C, 15 min, SRSF1 EMSA: 100 mM NaCl, 20 mM HEPES-Na pH 8.0 …"}, "SRSF1-His6 (23 kDa)": {"target": "SRSF1-His6 (23 kDa) (UniProt Q07955)", "sequence (Q07955 1-186)": "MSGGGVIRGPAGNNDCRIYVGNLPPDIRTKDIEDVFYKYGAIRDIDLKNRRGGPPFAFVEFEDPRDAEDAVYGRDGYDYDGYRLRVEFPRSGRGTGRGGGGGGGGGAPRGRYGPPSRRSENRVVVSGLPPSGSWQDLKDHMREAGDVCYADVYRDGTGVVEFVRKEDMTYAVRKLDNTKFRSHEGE", "test": "EMSA", "conditions": "MBNL1 filter binding: 250 mM NaCl, 15 mM KCl, 50 mM Tris-HCl pH 8.0, 0.05% Tween-20, 1 mM MgCl2, 37 C, 15 min, SRSF1 EMSA: 100 mM NaCl, 20 mM HEPES-Na pH 8.0 …"}}, "data": [{"substance": "Atp2a1-RNA", "values": [{"measurement": "binding signal (fold suppression)", "setting": "[1]; 0.5 uM 2'OMe AON (S4)", "result": 8}, {"measurement": "binding signal (fold suppression)", "setting": "[1]; 0.5 uM 2'OMe-PS AON (S5)", "result": 8}, {"measurement": "binding signal (fold suppression)", "setting": "[1]; 20 uM DNA AON (S120)", "result": 8}]}, {"substance": "GGGUUGGUACUAAGAAGUGCCUUUCCUGACGUCUCUGCUGCUUGGAACCGCUUCUAGAGCAGCCUCUGCUUUUGCCUUGCUUGCUGCCAGCUAGACUGACGACAGCACAUCCGCCCUCCACCUCUAGCCCAGACACCCCAUUUCUACUUCUAAUCAGGAGAAAAGCUCUGAGUAUCUGCCAUUGCCCUAGG [Mbnl1-RNA]", "values": [{"measurement": "Kd", "setting": "SRSF1-His6 (23 kDa)", "result": 13, "unit": "nM"}]}, {"substance": "Mbnl1-RNA", "values": [{"measurement": "Kd", "setting": "SRSF1-His6 (23 kDa); no AON", "result": 13, "unit": "nM"}]}, {"substance": "Nfix-RNA", "values": [{"measurement": "Kd", "setting": "SRSF1-His6 (23 kDa); no AON", "result": 60, "unit": "nM"}]}]}
